Biological target: FLAG-CTRwt (full-length) (human) (UniProt P30988)
Assay: proximity ligation; in situ PLA (Duolink) on fixed PC cells (PC-3CTRwt, PC-3CTR∆ESS, LNCaP) with anti-ZO-1 and anti-CTR sera; with/without 50 nM CT for 30 seconds; dots per cell counted

UniProt P30988, sequence (P30988 25-474): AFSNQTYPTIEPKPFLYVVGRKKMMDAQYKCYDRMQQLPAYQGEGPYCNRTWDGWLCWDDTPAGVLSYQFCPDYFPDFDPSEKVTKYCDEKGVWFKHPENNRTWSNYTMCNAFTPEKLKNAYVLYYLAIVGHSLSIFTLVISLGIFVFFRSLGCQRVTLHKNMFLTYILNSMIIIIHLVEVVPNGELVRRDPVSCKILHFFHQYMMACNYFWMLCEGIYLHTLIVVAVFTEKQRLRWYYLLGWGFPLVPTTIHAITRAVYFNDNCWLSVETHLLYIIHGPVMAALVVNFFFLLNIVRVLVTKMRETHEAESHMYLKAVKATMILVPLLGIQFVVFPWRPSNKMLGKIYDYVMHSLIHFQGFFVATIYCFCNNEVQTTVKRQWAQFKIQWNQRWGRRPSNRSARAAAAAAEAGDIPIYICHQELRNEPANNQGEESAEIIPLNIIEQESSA

## Zonula Occludens-1 (ZO-1), endogenous (from UniProt Q07157 1-1748) (natural protein)
  fold increase of PLA interactions with 50 nM CT (30 seconds) over no exogenous CT: 80 fold
